The results in this text go back to patent US6344321, “Nucleic acid ligands which bind to hepatocyte growth factor/scatter factor (HGF/SF) or its receptor c-met” (Gilead Sciences, Inc.).

To fix the notation:
B1: 10-49 (ssRNA)
RNA: GGGAGAUAAGAAUAAACGCUCAACCCGACCUCCUGUAACUGGUUGAGGCACUAUUCGACAGGAGGCUCACAACAGGC
modifications: 2'-F pyrimidines
B2: 10-62 (ssRNA)
RNA: GGGAGAUAAGAAUAAACGCUCAAGUUAGACUCAACAUGAGUCCCAGCCUCAAUUCGACAGGAGGCUCACAACAGGC
modifications: 2'-F pyrimidines
B3: 10-47 (ssRNA)
RNA: GGGAGAUAAGAAUAAACGCUCAAGUCAAGAGGAAAUGACACGGCUCCACUUUUAUUCGACAGGAGGCUCACAACAGGC
modifications: 2'-F pyrimidines
B4: 10-37 (ssRNA)
RNA: GGGAGAUAAGAAUAAACGCUCAAGUCUGAGUCCGUAGGGCGAUUUGUGUCCCUUCGACAGGAGGCUCACAACAGGC
modifications: 2'-F pyrimidines
B5: 10-16 (ssRNA)
RNA: GGGAGAUAAGAAUAAACGCUCAAUACAGCGUGUUGGUCCCGGACGGGGACUUAUUUCGACAGGAGGCUCACAACAGGC
modifications: 2'-F pyrimidines
B6: 10-13 (ssRNA)
RNA: GGGAGAUAAGAAUAAACGCUCAAGAUCUGUUGGCGUGUCUACCCGACCCUCCUUUCGACAGGAGGCUCACAACAGGC
modifications: 2'-F pyrimidines
B7: 10-27 (ssRNA)
RNA: GGGAGAUAAGAAUAAACGCUCAAUUAGCCUCCGACCGUAAGGUCCUUUUCUUGUUCGACAGGAGGCUCACAACAGGC
modifications: 2'-F pyrimidines
B8: 11-203 (ssRNA)
RNA: GGGAGGACGAUGCGGGGUUUUUCUUUUCUUGUUCUCUUCUUUCCCCCAGACGACUCGCCCGA
modifications: 2'-F pyrimidines
B9: 10-58 (ssRNA)
RNA: GGGAGAUAAGAAUAAACGCUCAAGGGGAGGCCCUUCAGCCGUCUCCUUGACCCUUCGACAGGAGGCUCACAACAGGC
modifications: 2'-F pyrimidines
B10: 10-2 (ssRNA)
RNA: GGGAGAUAAGAAUAAACGCUCAAGCCUGAGUUAAACAUGACGGUUUGUGACCCUUCGACAGGAGGCUCACAACAGGC
modifications: 2'-F pyrimidines
B11: 10-23 (ssRNA)
RNA: GGGAGAUAAGAAUAAACGCUCAAGUCUGAGUUGGACACAACGCAUUGAGACCCUUCGACAGGAGGCUCACAACAGGC
modifications: 2'-F pyrimidines
B12: 8-102 (ssRNA)
RNA: GGGAGGACGAUGCGGCGAGUGCCUGUUUAUGUCAUCGUCCGUCGUCAGACGACUCGCCCGA
modifications: 2'-F pyrimidines
B13: 8-203 (ssRNA)
RNA: GGGAGGACGAUGCGGCGCGAGCCUAUUUAUGUCAUCAUGUCUGUGCAGACGACUCGCCCGA
modifications: 2'-F pyrimidines
B14: 8-215 (ssRNA)
RNA: GGGAGGACGAUGCGGCGUGAGCCUAUUUAUGUCAUCAUGUCUGGUCAGACGACUCGCCCGA
modifications: 2'-F pyrimidines
B15: 8-222 (ssRNA)
RNA: GGGAGGACGAUGCGGUGUGAACCUAUUUAUGCCAUUAUGUCUGUGCAGACGACUCGCCCGA
modifications: 2'-F pyrimidines
B16: 10-29 (ssRNA)
RNA: GGGAGAUAAGAAUAAACGCUCAAUCUGUUGGCGUCGUUCUCCUGACCCUCCUCUUCGACAGGAGGCUCACAACAGGC
modifications: 2'-F pyrimidines
B17: 10-72 (ssRNA)
RNA: GGGAGAUAAGAAUAAACGCUCAAUGUGGCACUGUUGUCCACAAGGGCCUCAUUCGACAGGAGGCUCACAACAGGC
modifications: 2'-F pyrimidines
B18: 10-57 (ssRNA)
RNA: GGGAGAUAAGAAUAAACGCUCAACGAGCCUCCUACCGUUUAGGUACCAUCUUGUUCGACAGGAGGCUCACAACAGGC
modifications: 2'-F pyrimidines
B19: 10-8 (ssRNA)
RNA: GGGAGAUAAGAAUAAACGCUCAAUUGACAAGGUACCUGUUGCCUGGCGUUUCUUUCGACAGGAGGCUCACAACAGGC
modifications: 2'-F pyrimidines
B20: 10-76 (ssRNA)
RNA: GGGAGAUAAGAAUAAACGCUCAAAGUUAGGCUUUAAAGCACGAUAAUCAGCAUUCGACAGGAGGCUCACAACAGGC
modifications: 2'-F pyrimidines
B21: 10-7 (ssRNA)
RNA: GGGAGAUAAGAAUAAACGCUCAAUGCCUUAAGAGCGGAACUCCCUGACCCACCUUCGACAGGAGGCUCACAACAGGC
modifications: 2'-F pyrimidines
B22: 10-28 (ssRNA)
RNA: GGGAGAUAAGAAUAAACGCUCAACCUGUUCUGAACGCAAAAUGGCGUGGUGGCUUCGACAGGAGGCUCACAACAGGC
modifications: 2'-F pyrimidines
B23: 10-18 (ssRNA)
RNA: GGGAGAUAAGAAUAAACGCUCAACGUGAUUCCUACCAUCAGGUACCUAUCUUGUUCGACAGGAGGCUCACAACAGGC
modifications: 2'-F pyrimidines
B24: 10-53 (ssRNA)
RNA: GGGAGAUAAGAAUAAACGCUCAAGGCCUCCAACCGCUAAAGGUUCCAUUCUUGUUCGACAGGAGGCUCACAACAGGC
modifications: 2'-F pyrimidines
B25: 10-52 (ssRNA)
RNA: GGGAGAUAAGAAUAAACGCUCAAUCUUAUUGUGUCCAGCUUCUCCCUGCAGGCUUCGACAGGAGGCUCACAACAGGC
modifications: 2'-F pyrimidines
B26: 10-11 (ssRNA)
RNA: GGGAGAUAAGAAUAAACGCUCAACGCCUGGACCGUUUGUUUAUCCCCGUAGUCUUCGACAGGAGGCUCACAACAGGC
modifications: 2'-F pyrimidines
B27: 11-123 (ssRNA)
RNA: GGGAGGACGAUGCGGGUGACUCAAAAUGGUGAUCCUCGUUUCGCCAGACGACUCGCCCGA
modifications: 2'-F pyrimidines
B28: 10-1 (ssRNA)
RNA: GGGAGAUAAGAAUAAACGCUCAAAGUGAUGUGAGAGCGUGCCUCUAGUCGGUGUUCGACAGGAGGCUCACAACAGGC
modifications: 2'-F pyrimidines
B29: 10-63 (ssRNA)
RNA: GGGAGAUAAGAAUAAACGCUCAAUGUGAUGUGAGGGCGUGCUUCCUAACGGUGUUCGACAGGAGGCUCACAACAGGC
modifications: 2'-F pyrimidines
B30: 10-3 (ssRNA)
RNA: GGGAGAUAAGAAUAAACGCUCAAGCCUGAGUUAAACAUGACGGGUUUUGUGACCCCUUUCGACAGGAGGCUCACAACAGGC
modifications: 2'-F pyrimidines
B31: 10-40 (ssRNA)
RNA: GGGAGAUAAGAAUAAACGCUCAAUGUCGUUAGUUUAUUGACAAGGCCCGAAGUUCGACAGGAGGCUCACAACAGGC
modifications: 2'-F pyrimidines
B32: 11-224 (ssRNA)
RNA: GGGAGGACGAUGCGGACAGCGGCGACUAGCCUGUUCAUGCCUGCCCAGACGACUCGCCCGA
modifications: 2'-F pyrimidines
B33: 11-107 (ssRNA)
RNA: GGGAGGACGAUGCGGGUUCUGUGUGUCCACGUUCUUACCCCUGUGCAGACGACUCGCCCGA
modifications: 2'-F pyrimidines
B34: 8-160 (ssRNA)
RNA: GGGAGGACGAUGCGGGUCCCCGAAUUUAAAGUGCGUUUUCCUCCGGGCAGACGACUCGCCCGA
modifications: 2'-F pyrimidines
B35: 10-36 (ssRNA)
RNA: GGGAGAUAAGAAUAAACGCUCAACGUUAGCAUCUGAACGAUGCCCAGCCUCAAUUCGACAGGAGGCUCACAACAGGC
modifications: 2'-F pyrimidines
B36: 10-48 (ssRNA)
RNA: GGGAGAUAAGAAUAAACGCUCAAGAGUUCCCUGUUGACUCGCUCUCCUGACCCUUCGACAGGAGGCUCACAACAGGC
modifications: 2'-F pyrimidines
B37: 10-31 (ssRNA)
RNA: GGGAGAUAAGAAUAAACGCUCAAGGGUUCCUGAUUGACCCUGUCUCUAGACCCUUCGACAGGAGGCUCACAACAGGC
modifications: 2'-F pyrimidines
B38: 11-221 (ssRNA)
RNA: GGGAGGACGAUGCGGGCAGAGCGAAAAUCGUCUUGUCCCCGACGCCAGACGACUCGCCCGA
modifications: 2'-F pyrimidines
B39: 8-174 (ssRNA)
RNA: GGGAGGACGAUGCGGUCGAGCUUCUGAGUUAAACUGGGGCCUCCUCAGACGACUCGCCCGA
modifications: 2'-F pyrimidines

For the first data set, the target named is T1, HGF (hepatocyte growth factor/scatter factor) (UniProt P14210;P14210 P14210:32-494,P14210:495-728). The experiment in a line: filter; HBSMC, 37C. The following applies: tags: R&D Systems. How it is done: (§1) In binding reactions, RNA concentrations were kept as low as possible—between 1 and 20 pM—to ensure equilibrium in conditions of protein excess. Oligonucleotides were incubated for 15 minutes at 37° C. with varying amounts of the protein in 43 µl of the binding buffer. Thirty-two microliters of each binding mixture placed on pre-wet 0.45 µm nitrocellulose filters under suction. Each well was immediately washed with 0.5 ml binding buffer. The amount of radioactivity retained on the filters was quantitated by imaging. The radioactivity that bound to filters in the absence of protein was used for background correction. The percentage of input oligonucleotide retained on each filter spot was plotted against the corresponding log protein concentration. The nonlinear least square method was used to obtain the dissociation constant (K_d; reference Jellinek, Lynott et al. 1993, Proc. Natl. Acad. Sci. USA. 90:11227–31).
T1 sequence (P14210 32-494, chain 1 of 2): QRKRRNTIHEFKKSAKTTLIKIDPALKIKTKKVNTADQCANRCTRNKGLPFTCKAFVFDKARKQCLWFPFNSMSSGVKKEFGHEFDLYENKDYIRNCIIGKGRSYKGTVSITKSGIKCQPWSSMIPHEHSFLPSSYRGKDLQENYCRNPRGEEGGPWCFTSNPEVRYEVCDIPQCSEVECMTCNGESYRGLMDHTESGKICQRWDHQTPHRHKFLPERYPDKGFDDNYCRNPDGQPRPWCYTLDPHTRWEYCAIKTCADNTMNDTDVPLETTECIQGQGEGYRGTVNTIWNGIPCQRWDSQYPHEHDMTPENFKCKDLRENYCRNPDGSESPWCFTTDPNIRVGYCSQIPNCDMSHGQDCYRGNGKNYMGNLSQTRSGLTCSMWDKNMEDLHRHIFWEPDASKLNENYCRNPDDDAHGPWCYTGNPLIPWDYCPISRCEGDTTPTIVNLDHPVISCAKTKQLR
T1 sequence (P14210 495-728, chain 2 of 2): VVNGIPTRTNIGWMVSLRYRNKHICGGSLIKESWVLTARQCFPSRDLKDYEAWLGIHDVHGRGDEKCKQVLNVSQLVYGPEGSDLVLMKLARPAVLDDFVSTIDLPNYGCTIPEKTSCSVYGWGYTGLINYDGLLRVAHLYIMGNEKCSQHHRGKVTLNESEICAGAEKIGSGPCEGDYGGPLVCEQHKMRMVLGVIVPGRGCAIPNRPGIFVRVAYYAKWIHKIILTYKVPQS
The molecule B1 registered a Kd of 0.24 nM.

The molecule B2 registered an equilibrium dissociation constant (Kd) of 0.44 nM. Still for that read-out and setting: in the case of B3 it was 0.39 nM. Take B4: the affinity, expressed as Kd, was 3.05 nM. Same read-out and setting: the same measure for B5: 0.21 nM; for B6: 0.72 nM.

B7 yielded a Kd of 0.83 nM. In turn, B8 gave a Kd of 0.26 nM. Same read-out and setting: in the case of B9 it was 0.44 nM.

Take B10: the Kd turned out to be 0.069 nM. On the same count and under the same terms, in the case of B11 it was 0.33 nM; in that of B12, 0.06 nM; in that of B13, 0.14 nM. On the same count and under the same terms, the same measure for B14: 0.077 nM; for B15: 0.13 nM; for B16: 1.75 nM. Consider B17, for which the Kd amounted to 0.45 nM. Compared with the last molecule, the Kd is about 3.9-fold lower. As for B18, the Kd was 0.14 nM. Compared with the last molecule, the Kd is about 3.2-fold lower. The molecule B19 returned a Kd of 0.92 nM.

Molecule B20 displayed a Kd of 0.17 nM.

In the case of B21, binding was put at a Kd of 1.45 nM.

As for B22, the equilibrium dissociation constant (Kd) stood at 0.86 nM. B23 returned a Kd of 0.3 nM. Against the preceding molecule, the Kd is about 2.9-fold lower.

Molecule B24 came in with an equilibrium dissociation constant (Kd) of 0.31 nM. Still for that read-out and setting: the same measure for B25: 0.16 nM. Turning to B26, the Kd is 0.61 nM. Compared with the last molecule, the Kd is about 3.8-fold higher.

In the case of B27, the Kd came to 0.09 nM.

As for B28, the Kd is 0.094 nM.

As for B29, the Kd was determined as 0.19 nM. This Kd lies about 2-fold higher than the previous one. On the same count and under the same terms, the same measure for B30: 0.072 nM; for B31: 0.35 nM. The same measure, in the same setting: the same measure for B32: 0.11 nM.

In turn, B33 came in with a Kd of 0.14 nM. B34: the dissociation constant Kd turned out to be 0.15 nM. Same read-out and setting: in the case of B35 it was 1.94 nM; in that of B36, 0.31 nM; in that of B37, 1.9 nM.

B38 came in with a Kd of 0.062 nM.

On to B39, for which the Kd turned out to be 0.23 nM.

A further data set has as its target T1, HGF (hepatocyte growth factor/scatter …). The experiment in a line: filter; one or two 5' G. Particulars: tags: R&D Systems. The method, then:
as §1
Molecule GGAGUGAUCCUAUUUAUGCCGUCGCUUCUCGCCA (ssRNA, 2'-F pyrimidines) [Tr44] gave a dissociation constant (Kd) of 6.5 nM.

What is called Kd is the concentration at which binding is half-saturated. High values mean a looser complex, low ones a tighter complex.
